We go through 48 variants from publication PMC8041999 (2021).

First the molecules themselves.
B1: FLAG-tagged KIR2DL2, full-length, wild type, on 293T cells [human] / HLA-C*07:02-RL9 tetramer (phycoerythrin-conjugated) [modified: biotin (enzymatically, with biotin ligase)] [human | not stated] (parent complex)
chain 1: HEGVHRKPSLLAHPGRLVKSEETVILQCWSDVRFEHFLLHREGKFKDTLHLIGEHHDGVSKANFSIGPMMQDLAGTYRCYGSVTHSPYQLSAPSDPLDIVITGLYEKPSLSAQPGPTVLAGESVTLSCSSRSSYDMYHLSREGEAHECRFSAGPKVNGTFQADFPLGPATHGGTYRCFGSFRDSPYEWSNSSDPLLVSVIGNPSNSWPSPTEPSSKTGNPRHLHILIGTSVVIILFILLFFLLHRWCSNKKNAAVMDQESAGNRTANSEDSDEQDPQEVTYTQLNHCVFTQRKITRPSQRPKTPPTDIIVYAELPNAESRSKVVSCP
chain 2: not shown
chain 3: not shown
chain 4: RYRPGTVAL
B2: FLAG-tagged KIR2DL3, full-length, wild type, on 293T cells [human] / HLA-C*03:04-GL9 tetramer (phycoerythrin-conjugated) [modified: biotin (enzymatically, with biotin ligase)] [human] (parent complex)
chain 1: HEGVHRKPSLLAHPGPLVKSEETVILQCWSDVRFQHFLLHREGKFKDTLHLIGEHHDGVSKANFSIGPMMQDLAGTYRCYGSVTHSPYQLSAPSDPLDIVITGLYEKPSLSAQPGPTVLAGESVTLSCSSRSSYDMYHLSREGEAHERRFSAGPKVNGTFQADFPLGPATHGGTYRCFGSFRDSPYEWSNSSDPLLVSVTGNPSNSWPSPTEPSSETGNPRHLHVLIGTSVVIILFILLLFFLLHRWCCNKKNAVVMDQEPAGNRTVNREDSDEQDPQEVTYAQLNHCVFTQRKITRPSQRPKTPPTDIIVYTELPNAEP
chain 2: not shown
chain 3: not shown
chain 4: GAVDPLLAL
B3: FLAG-tagged KIR2DL3, full-length, wild type, on 293T cells [human] / HLA-C*07:02-RL9 tetramer (phycoerythrin-conjugated) [modified: biotin (enzymatically, with biotin ligase)] [human | not stated] (parent complex)
chain 1: B2 chain 1
chain 2: not shown
chain 3: not shown
chain 4: RYRPGTVAL
B4: FLAG-tagged KIR2DL2, full-length, wild type, on 293T cells [human] / HLA-C*03:04-GL9 tetramer (phycoerythrin-conjugated) [modified: biotin (enzymatically, with biotin ligase)] [human] (parent complex)
chain 1: B1 chain 1
chain 2: not shown
chain 3: not shown
chain 4: GAVDPLLAL

One assay covers variants of B1. Kind of assay: flow cytometry, HLA tetramer staining of transfected 293T cells; percentage tetramer+ normalised to percentage FLAG+; read off a plot. A general note: In flow cytometry, cells or beads pass a laser one at a time.
In the case of chain 1 D183A, the ratio to parent was roughly 0.67.

For chain 1 L104A, the ratio to parent is roughly 0.67. As to chain 1 S133A, the ratio to parent is roughly 1.2.

chain 1 M70A: the ratio to parent was roughly 0.92.

On to chain 1 K44A, for which the ratio to parent was roughly 1.1. With chain 1 E21A, the ratio to parent was roughly 1. Turning to chain 1 F45A, the ratio to parent is roughly 1.1. Still for that read-out and setting: then chain 1 E106A, with roughly 1.2; and chain 1 Y105A, with roughly 0.01. Still for that read-out and setting: then chain 1 S132A, with roughly 1; and chain 1 D72A, with roughly 1.3.

For the variant chain 1 D135A, the ratio to parent was roughly 1.2.

The variants in a further assay derive from B2. The description is as above.
Consider chain 1 F45A, for which the ratio to parent is roughly 0.04. On the same count and under the same terms, to chain 1 E21A belongs roughly 0.92; to chain 1 D135A, roughly 0.1. Consider chain 1 M70A, for which the ratio to parent was roughly 1.1. For the variant chain 1 D72A, the ratio to parent is roughly 1. For the variant chain 1 L104A, the ratio to parent was roughly 0.05. chain 1 K44A: the ratio to parent was roughly 0.6. On to chain 1 Y105A, for which the ratio to parent was roughly 0.02.

Turning to chain 1 S133A, the ratio to parent was roughly 0.57. With chain 1 D183A, the ratio to parent was roughly 0.05.

As to chain 1 S132A, the ratio to parent was roughly 1.2. As to chain 1 E106A, the ratio to parent is roughly 0.82.

A further assay covers variants of B3. The description is as above.
As for chain 1 E21A, the ratio to parent is roughly 0.97. With chain 1 M70A, the ratio to parent is roughly 1.3. Regarding chain 1 D135A, the ratio to parent is roughly 0.57. Regarding chain 1 E106A, the ratio to parent is roughly 0.85. On the same count and under the same terms, to chain 1 K44A belongs roughly 0.9; to chain 1 S132A, roughly 1.1. Regarding chain 1 Y105A, the ratio to parent was roughly 0.02. Turning to chain 1 F45A, the ratio to parent was roughly 0.72. The same measure, in the same setting: then chain 1 D72A, with roughly 1.1; and chain 1 D183A, with roughly 0.33. For chain 1 L104A, the ratio to parent is roughly 0.4.

As to chain 1 S133A, the ratio to parent was roughly 1.2.

Variants of B4 are the subject of another assay. The assay is described as above.
For the variant chain 1 S133A, the ratio to parent was roughly 0.17. On to chain 1 F45A, for which the ratio to parent is roughly 0.03. Consider chain 1 Y105A, for which the ratio to parent was roughly 0.01. Still for that read-out and setting: to chain 1 E21A belongs roughly 0.88; to chain 1 D183A, roughly 0.02. Consider chain 1 E106A, for which the ratio to parent was roughly 0.93. With chain 1 D135A, the ratio to parent is roughly 0.03.

Consider chain 1 K44A, for which the ratio to parent was roughly 0.95. With chain 1 D72A, the ratio to parent is roughly 1.1.

Turning to chain 1 M70A, the ratio to parent was roughly 1. With chain 1 L104A, the ratio to parent is roughly 0.02. For chain 1 S132A, the ratio to parent was roughly 1.
